{"source": "patent US20030187247A1", "key": {"[1]": {"target": "recombinant gp120 of HIV-1 strain IIIB (HIV-1 strain IIIB) (UniProt P04578)", "test": "SPR (BIAcore)"}, "[2]": {"target": "HXBc2 gp120 mutant NO V1/V2 (HIV-1 (HXBc2 clone of strain LAI)) (UniProt P04578)", "test": "capture ELISA (D7324)"}, "[3]": {"target": "recombinant gp120 of HIV-1 strain IIIB (HIV-1 strain IIIB) (UniProt P04578)", "test": "inhibition ELISA, free gp120 titrated against plate-bound gp120"}, "[4]": {"target": "gp120 derived from the HIV-1 strain LAI (Repligen) (HIV-1 strain LAI) (UniProt P03377)", "test": "SPR (BIAcore), gp120 immobilized"}, "[5]": {"target": "gp120 derived from the HIV-1 strain LAI (Repligen) (HIV-1 strain LAI) (UniProt P03377)", "test": "BIAcore sandwich, same Fab injected twice (negative control); competitor: b6"}, "[6]": {"target": "gp120 derived from the HIV-1 strain LAI (Repligen) (HIV-1 strain LAI) (UniProt P03377)", "test": "BIAcore sandwich, Fab 2 on gp120 held by Fab 1; competitor (Fab 1): b12"}, "[7]": {"target": "HXBc2 mature gp120 expressed by COS-1 cells (HIV-1 (HXBc2 clone)) (UniProt P04578)"}, "[8]": {"target": "gp120 derived from the HIV-1 strain LAI (Repligen) (HIV-1 strain LAI) (UniProt P03377)", "test": "SPR (BIAcore), kon/koff"}, "[9]": {"target": "gp120 derived from the HIV-1 strain LAI (Repligen) (HIV-1 strain LAI) (UniProt P03377)", "test": "BIAcore sandwich, Fab 2 on gp120 held by Fab 1; competitor (Fab 1): b13"}, "[10]": {"target": "gp120 derived from the HIV-1 strain LAI (Repligen) (HIV-1 strain LAI) (UniProt P03377)", "test": "BIAcore sandwich, Fab 2 on gp120 held by Fab 1; competitor (Fab 1): b6"}, "[11]": {"target": "multimeric HXBc2 envelope glycoprotein complex on the transfected COS-1 cell surface (HIV-1 (HXBc2 clone)) (UniProt P04578)", "test": "Fab on transfected COS-1 cells, immunoprecipitation"}, "[12]": {"target": "gp120 derived from the HIV-1 strain LAI (Repligen) (HIV-1 strain LAI) (UniProt P03377)", "test": "BIAcore sandwich, same Fab injected twice (negative control); competitor: b12"}, "[13]": {"target": "HXBc2 mature gp120 expressed by COS-1 cells (HIV-1 (HXBc2 clone)) (UniProt P04578)", "test": "Fab on radiolabeled COS-1 cells, lysis, precipitation, gel densitometry"}}}
{"substance": "b12 IgG1 (antibody)", "values": [{"measurement": "Ka", "setting": "[1]", "value": "1.3e+09", "unit": "M⁻¹"}]}
{"substance": "Fab b6", "values": [{"measurement": "Fab/reference serum binding ratio", "setting": "[2]", "value": 1.48}, {"measurement": "IC50", "setting": "[3]", "value": 1, "unit": "nM"}, {"measurement": "koff", "setting": "[4]", "value": 0.00016, "unit": "s⁻¹"}, {"measurement": "kon", "setting": "[4]", "value": 16000, "unit": "M⁻¹ s⁻¹"}, {"measurement": "response (RU), background", "setting": "[5]", "value": 38, "unit": "RU"}, {"measurement": "response (RU), background subtracted", "setting": "[6]", "value": 17, "unit": "RU"}, {"measurement": "Ka", "setting": "[7]", "value": "< 6e+06", "unit": "M⁻¹"}, {"measurement": "Ka", "setting": "[8]", "value": "9.7e+07", "unit": "M⁻¹"}, {"measurement": "response (RU), background subtracted", "setting": "[9]", "value": 21, "unit": "RU"}, {"measurement": "response (RU), background subtracted", "setting": "[10]", "value": 0, "unit": "RU"}, {"measurement": "Fab concentration at saturation", "setting": "[11]", "value": "> 150", "unit": "µg/mL"}]}
{"substance": "Fab b12", "values": [{"measurement": "Fab/reference serum binding ratio", "setting": "[2]", "value": 0.23}, {"measurement": "response (RU), background", "setting": "[12]", "value": 17, "unit": "RU"}, {"measurement": "IC50", "setting": "[3]", "value": 1, "unit": "nM"}, {"measurement": "koff", "setting": "[4]", "value": 0.00043, "unit": "s⁻¹"}, {"measurement": "kon", "setting": "[4]", "value": 45000, "unit": "M⁻¹ s⁻¹"}, {"measurement": "response (RU), background subtracted", "setting": "[6]", "value": 0, "unit": "RU"}, {"measurement": "Ka", "setting": "[7]", "value": "3e+07", "unit": "M⁻¹"}, {"measurement": "Ka", "setting": "[8]", "value": "1.1e+08", "unit": "M⁻¹"}, {"measurement": "response (RU), background subtracted", "setting": "[9]", "value": 22, "unit": "RU"}, {"measurement": "Fab concentration at saturation", "setting": "[11]", "value": 100, "unit": "µg/mL"}, {"measurement": "excess of gp120 over gp160 immunoreacted", "setting": "[13]", "value": "> 50", "unit": "%"}]}
